Assay results as given in paper PMC6941876, “White Spot Syndrome Virus Establishes a Novel IE1/JNK/c-Jun Positive Feedback Loop to Drive Replication”.

Tests used:
rLvc-Jun [1] = molecular target: T1, rLvc-Jun (Litopenaeus vannamei, UniProt A0A0A7W5M9 1-293); assay: EMSA; EMSA with biotin-labeled probes; buffer, salt, pH and temperature not in the material; conditions: protein: recombinant, tags: GST tag removed with enterokinase, chain copies: 0, blunt
T1 chain: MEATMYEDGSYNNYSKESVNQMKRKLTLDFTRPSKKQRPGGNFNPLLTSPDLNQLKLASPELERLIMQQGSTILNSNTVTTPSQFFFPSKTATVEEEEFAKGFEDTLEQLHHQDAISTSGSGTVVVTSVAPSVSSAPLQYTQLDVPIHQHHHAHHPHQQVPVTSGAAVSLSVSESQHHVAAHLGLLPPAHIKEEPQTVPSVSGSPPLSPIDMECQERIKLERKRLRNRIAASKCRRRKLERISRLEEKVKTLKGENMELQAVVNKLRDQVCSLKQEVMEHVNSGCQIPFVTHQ

rLvc-Jun [2] = molecular target: T1, rLvc-Jun; assay: competition; 10-, 50-, 100-fold excess over biotin IE1-AP-1-1; EMSA with biotin-labeled probes; buffer, salt, pH and temperature not in the material; conditions: protein: recombinant; tags: GST tag removed with enterokinase; chain copies: 0; label: none; blunt

B1: 403-AP-1 probe (dsDNA)
DNA 1: ATTTCCAAGAATTTTGCTGACGTCAATGGACC
DNA 2: GGTCCATTGACGTCAGCAAAATTCTTGGAAAT
binding result (rLvc-Jun [1]; label: biotin): binds

B2: Mut-unBio-IE1-AP-1-1 (dsDNA)
DNA 1: GAAAATCGCTGTTCCCATCCTGTTAAGGAATT
DNA 2: AATTCCTTAACAGGATGGGAACAGCGATTTTC
binding result (rLvc-Jun [2]): no binding

B3: 249-AP-1 probe (dsDNA)
DNA 1: TAGGAATTTCGCTGACGTCAATAAACTGGTTT
DNA 2: AAACCAGTTTATTGACGTCAGCGAAATTCCTA
binding result (rLvc-Jun [1]; label: biotin): binds

B4: IE1-AP-1-1 probe (dsDNA)
DNA 1: GAAAATGGCTGTTTGAATCATGTTAAGGAATT
DNA 2: AATTCCTTAACATGATTCAAACAGCCATTTTC
binding result (rLvc-Jun [1]; label: biotin (probe)): binds

B5: IE1-AP-1-2 probe (dsDNA)
DNA 1: GGAATTTCCTTGTTACTCATTTATTCCTAGA
DNA 2: TCTAGGAATAAATGAGTAACAAGGAAATTCC
binding result (rLvc-Jun [1]; label: biotin (probe)): binds

B6: 056-AP-1 probe (dsDNA)
DNA 1: GTACCAGATGTGAGTCAAACCGTTTCTGG
DNA 2: CCAGAAACGGTTTGACTCACATCTGGTAC
binding result (rLvc-Jun [1]; label: biotin): binds
